# Measured values taken from patent US20180369374A1 (published 2018).
# T1: OX40R on mouse CD4+ T-cells (mouse, UniProt P47741 20-272)
# T1 sequence (looked up): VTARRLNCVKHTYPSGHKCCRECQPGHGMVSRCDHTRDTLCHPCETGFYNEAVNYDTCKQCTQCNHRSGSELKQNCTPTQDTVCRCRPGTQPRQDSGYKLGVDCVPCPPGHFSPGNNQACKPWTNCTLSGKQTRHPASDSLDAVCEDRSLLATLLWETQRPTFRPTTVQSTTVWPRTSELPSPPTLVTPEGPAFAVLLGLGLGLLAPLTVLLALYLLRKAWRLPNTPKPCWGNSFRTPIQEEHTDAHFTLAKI
# B1: murine OX40L polypeptide expressed from mOX40L_miR122 on B16F10 cells (ligand)
# chain: MEGEGVQPLDENLENGSRPRFKWKKTLRLVVSGIKGAGMLLCFIYVCLQLSSSPAKDPPIQRLRGAVTRCEDGQLFISSYKNEYQTMEVQNNSVVIKCDGLYIIYLKGSFFQEVKIDLHFREDHNPISIPMLNDGRRIVFTVVASLAFKDKVYLTVNAPDTLCEHLQINDGELIVVQLTPGYCAPEGSYHSTVNQVPL
# B2: 9D9 IgG2a antibody (9D9 VH:mIgG2a (IgG2a^a allele) plus 9D9 VL:mIgGk), mRNA-encoded (antibody)
# heavy: EAKLQESGPVLVKPGASVKMSCKASGYTFTDYYMNWVKQSHGKSLEWIGVINPYNGDTSYNQKFKGKATLTVDKSSSTAYMELNSLTSEDSAVYYCARYYGSWFAYWGQGTLITVSTAKTTAPSVYPLAPVCGDTTGSSVTLGCLVKGYFPEPVTLTWNSGSLSSGVHTFPAVLQSDLYTLSSSVTVTSSTWPSQSITCNVAHPASSTKVDKKIEPRGPTIKPCPPCKCPAPNLLGGPSVFIFPPKIKDVLMISLSPIVTCVVVDVSEDDPDVQISWFVNNVEVHTAQTQTHREDYNSTLRVVSALPIQHQDWMSGKEFKCKVNNKDLPAPIERTISKPKGSVRAPQVYVLPPPEEEMTKKQVTLTCMVTDFMPEDIYVEWTNNGKTELNYKNTEPVLDSDGSYFMYSKLRVEKKNWVERNSYSCSVVHEGLHNHHTTKSFSRTPGK
# light: DIVMTQTTLSLPVSLGDQASISCRSSQSIVHSNGNTYLEWYLQKPGQSPKLLIYKVSNRFSGVPDRFSGSGSGTDFTLKISRVEAEDLGVYYCFQGSHVPYTFGGGTKLEIKRADAAPTVSIFPPSSEQLTSGGASVVCFLNNFYPKDINVKWKIDGSERQNGVLNSWTDQDSKDSTYSMSSTLTLTKDEYERHNSYTCEATHKTSTSPIVKSFNRNEC
# notes: Full heavy and light chains expressed from mRNA in HeLa cells, tested as cell supernatant; The entries are whole ORFs and may include a signal peptide; also called HC-2Aa:LC; 9D9 2a
# B3: 9D9 IgG2b antibody (9D9 VH:mIgG2b plus 9D9 VL:mIgGk), mRNA-encoded (antibody)
# heavy: EAKLQESGPVLVKPGASVKMSCKASGYTFTDYYMNWVKQSHGKSLEWIGVINPYNGDTSYNQKFKGKATLTVDKSSSTAYMELNSLTSEDSAVYYCARYYGSWFAYWGQGTLITVSTAKTTPPSVYPLAPGCGDTTGSSVTLGCLVKGYFPESVTVTWNSGSLSSSVHTFPALLQSGLYTMSSSVTVPSSTWPSQTVTCSVAHPASSTTVDKKLEPSGPISTINPCPPCKECHKCPAPNLEGGPSVFIFPPNIKDVLMISLTPKVTCVVVDVSEDDPDVQISWFVNNVEVHTAQTQTHREDYNSTIRVVSTLPIQHQDWMSGKEFKCKVNNKDLPSPIERTISKIKGLVRAPQVYILPPPAEQLSRKDVSLTCLVVGFNPGDISVEWTSNGHTEENYKDTAPVLDSDGSYFIYSKLNMKTSKWEKTDSFSCNVRHEGLKNYYLKKTISRSPGK
# light: B2 light
# notes: Full heavy and light chains expressed from mRNA in HeLa cells, tested as cell supernatant; The entries are whole ORFs and may include a signal peptide; also called HC-2B:LC; 9D9 2b
# What was measured:
# [1] = target: T1, OX40R on mouse CD4+ T-cells; assay: cell-based or functional assay
# [2] = target: T2, mCTLA-4-His (Life Technologies) (mouse, UniProt P09793 36-162, limits assumed); assay: ELISA, HeLa supernatant on mCTLA-4-His-coated plates, HRP-goat anti-mouse IgG Fc detection
# T2 construct: Bought reagent coated on ELISA plates; also called CTLA-4-coated plates; not shown: His tag
# Description: The following mRNAs encoding anti-CTLA-4 antibody heavy and light chains (HC and LC mRNAs) were designed and assayed for expression by measuring both CTLA-4-bound antibody and total IgG produced (FIG. 1): (1) 9D9 VH:mIgG2a (IgG2a^a allele) plus 9D9 VL:mIgGk; and (2) 9D9 VH:mIgG2b plus 9D9 VL:mIgGk. HeLa cells were transfected in 6-well plates with mRNA formulated in Lipofectamine 2000. Cell supernatants were harvested at 18 hours post transfection. Supernatants were assayed for binding to CTLA-4-coated plates (mCTLA-4-His (Life Technologies)) and detection was with HRP-Goat anti-mouse IgG Fc, 1:10000 (JIR). Purified 9D9 antibody (BioXcell) was used for the standard curve in the CTLA-4-binding ELISA. The Mouse IgG total ELISA Ready-SET-Go® assay (eBioscience) was used for quantitating total mouse IgG, with a mouse IgG internal standard.
Binder,"mouse IL-2 production by CD4+ T-cells co-cultured with OX40L-expressing B16F10 cells (IL-2 ELISA), against mock-treated or non-translated mRNA control [1] [fold]",binding result [2]
B1,~2,–
B2,–,binds
B3,–,binds
